Molecular target: TRIM21 (tripartite motif-containing 21) (UniProt P19474)
Assay: co-IP, immunoblot
Conditions: reference: HMGA2 wild type; sites S105

Substance: HMGA2 (high mobility group protein A2) (from UniProt P52926) HMGA2 S105A
- binding against the reference: weaker

Source: PMC12225019
